Measured values from US20170051304A1 (DOW AGROSCIENCES, published 2017).
Residue numbers refer to the chain shown, from its start. “And” between values parts separate entries of the source, which are not always exact repeats. Equal entries are not always repeated. Where no end group is shown, it is not given here.

T1: Large fragment (residues 12-390) of trypsin treated DIG-616 (DIG-177 C162>A) (Bacillus thuringiensis, UniProt Q45757 12-390)
T1 sequence: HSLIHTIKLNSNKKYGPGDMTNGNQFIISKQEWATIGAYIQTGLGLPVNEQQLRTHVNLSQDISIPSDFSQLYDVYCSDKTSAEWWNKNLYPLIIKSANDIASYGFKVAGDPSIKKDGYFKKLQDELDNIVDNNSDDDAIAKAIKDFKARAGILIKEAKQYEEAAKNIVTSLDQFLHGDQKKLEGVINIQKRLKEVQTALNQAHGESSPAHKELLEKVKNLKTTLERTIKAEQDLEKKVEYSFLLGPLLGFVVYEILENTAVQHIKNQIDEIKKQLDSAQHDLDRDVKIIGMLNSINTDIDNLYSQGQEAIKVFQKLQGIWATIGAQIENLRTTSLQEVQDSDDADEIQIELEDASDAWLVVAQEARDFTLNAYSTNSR

T2: Large fragment (residues 12-390) of trypsin treated DIG-984 (DIG-177 C88>A; C451>A) (Bacillus thuringiensis) (UniProt Q45757)
T2 sequence: T1 sequence with C77A, A151C

B1: DIG-177 (full length wild type Cry6Aa) (other)
chain: MIIDSKTTLPRHSLIHTIKLNSNKKYGPGDMTNGNQFIISKQEWATIGAYIQTGLGLPVNEQQLRTHVNLSQDISIPSDFSQLYDVYCSDKTSAEWWNKNLYPLIIKSANDIASYGFKVAGDPSIKKDGYFKKLQDELDNIVDNNSDDDAIAKAIKDFKARCGILIKEAKQYEEAAKNIVTSLDQFLHGDQKKLEGVINIQKRLKEVQTALNQAHGESSPAHKELLEKVKNLKTTLERTIKAEQDLEKKVEYSFLLGPLLGFVVYEILENTAVQHIKNQIDEIKKQLDSAQHDLDRDVKIIGMLNSINTDIDNLYSQGQEAIKVFQKLQGIWATIGAQIENLRTTSLQEVQDSDDADEIQIELEDASDAWLVVAQEARDFTLNAYSTNSRQNLPINVISDSCNCSTTNMTSNQYSNPTTNMTSNQYMISHEYTSLPNNFMLSRNSNLEYKCPENNFMIYWYNNSDWYNNSDWYNN
notes: Insecticidal crystal protein; Recombinant from Pseudomonas fluorescens (standard), or expressed in maize, there in part with transit peptides
B2: CTP 2 (Carboxy terminal peptide 2), amino acids 451-475 of SEQ ID NO:2 (peptide)
peptide: CPENNFMIYWYNNSDWYNNSDWYNN
modifications: also: Cys451 (position 1) disulfide-bonded to Cys88 of LF under non-reducing conditions
B3: Carboxy terminal peptide 444-475 of trypsin treated DIG-984 (C451>A) (peptide)
peptide: NSNLEYKAPENNFMIYWYNNSDWYNNSDWYNN
B4: CTP 1 (Carboxy terminal peptide 1), amino acids 444-475 of SEQ ID NO:2 (peptide)
peptide: B3 peptide with A8C
modifications: also: Cys451 (position 8) disulfide-bonded to Cys88 of LF under non-reducing conditions
B5: Carboxy terminal peptide 451-475 of trypsin treated DIG-984 (C451>A) (peptide)
peptide: APENNFMIYWYNNSDWYNNSDWYNN

Key:
[1] = target: the molecule itself; test: SDS-PAGE of undigested full-length DIG-177 (self-association)
Procedure: SDS-PAGE was run following the protocol NuPAGE Bis-Tris gels from Invitrogen Life technologies (Protocol Pub. No. MAN0007894 Rev. A.0, Ref. 2). Briefly, samples were mixed with denaturing sample buffer (Invitrogen) plus 5 mM DTT (for reducing PAGE) or minus DTT (for non reducing PAGE) and heated at 95° C. for 5 minutes. The samples were loaded onto Invitrogen Bis/Tris gel. The gel was run with MOPS or MES running buffer under 200 V for ˜43 minutes. The gel was stained with Coomassie blue staining solution (Bio-Rad) for 30 minutes and de-stained with de-staining solution (7% Acetic acid and 5% Methanol in water) until the background cleared.

[2] = target: T1, Large fragment (residues 12-390) of …; test: cell-based or functional assay
[3] = target: T2, Large fragment (residues 12-390) of trypsin treated DIG-984 (DIG-177 C88>A; C451>A) (Bacillus thuringiensis); test: cell-based or functional assay

| Binder | % Mortality [2] [%] | % Mortality [3] | further results |
| --- | --- | --- | --- |
| B1 | – | – | binding result [1]: binds |
| B2 | 95 | – | – |
| B3 | – | 0% and 21.1% and 15% | – |
| B4 | 95 | – | – |
| B5 | – | 0% and 21.1% and 15% | – |
